According to patent US20160228506A1, “Compositions and Formulations for Prevention and Reduction of Tumorigenesis, Cancer Cell Proliferation and Invasion, and Methods of Production and Use Thereof in Cancer Treatment” (PRONUTRIA, INC., priority 2013, published 2016):

B1: SEQID-00609: protein of the 168 nutritive polypeptide library (protein, listed as Saccharomyces cerevisiae)
chain: MSNPFDLLGNDVEDADVVVLPPKEIVKSNTSSKKADVPPPSADPSKARKNRPRPSGNEGAIRDKTAGRRNNRSKDVTDSATTKKSNTRRATDRHSRTGKTDTKKKVNQGWGDDKKELSAEKEAQADAAAEIAEDAAEAEDAGKPKTAQLSLQDYLNQQANNQFNKVPEAKKVELDAERIETAEKEAYVPATKVKNVKSKQLKTKEYLEFDATFVESNTRKNFGDRNNNSRNNFNNRRGGRGARKGNNTANATNSANTVQKNRNIDVSNLPSLA
modifications: source: /note="strain ATCC 204508 / S288c"
notes: protein of the 168 nutritive polypeptide library
B2: SEQID-00613: protein of the 168 nutritive polypeptide library (protein)
chain: MGLFDRIGRVVRANLNDLVNKAEDPEKILEQAVIEMQEDLIQLRQAVAQTIAQQKRSQQQYNQAQSQANQWQSRAQLALQKGDENLAREALQRKKGYLETANTLEISLRQQTEQVETLKRNLVSLESKISEAKTKKNMLKARAQAAKANEQLNNVLGGINTSSATSVFERMEEKVMIQEAKSQAAAELMGSGLEEQFRALEEGSDVDDELAAMKAQLAGAPANQPQLSPSAPTDSSTSNPEIDNELEELRRELNK
modifications: Arthrospira platensis C1
notes: as for B1
B3: SEQID-00618: protein of the 168 nutritive polypeptide library (protein)
chain: MDAGGKIKKGAGGRKGGGPKKKPVSRSVKAGLQFPVGRIGRYLKKGRYAQRVGTGAPVYLAAVLEYLAAEVLELAGNAARDNKKNRIIPRHVLLAVRNDEELGKLLAGVTIAHGGVLPNINPVLLPKKTERASKEPKSPSKATKSPKKA
modifications: Glycine max
notes: as for B1
B4: SEQID-00624: protein of the 168 nutritive polypeptide library (protein)
chain: MSEKTDQILEQLKSLSLLEASELVKQIEEAFGVDASASAGGGMMMMAAPGMAAPGAEAAAEEEKTEFDVILTEFPADKKIAVLKVVRSITGLGLKEAKDLVESAPKAIKEATTKEDAESIKKQLEESGAKVEVK
modifications: Arthrospira platensis NIES-39
notes: as for B1
B5: SEQID-00607: protein of the 168 nutritive polypeptide library (protein)
chain: MALQDDWQQSHLERRQVLAESQKQIWATIGLWQRERYSQAITQKQDRQAFVSQLKQENQAFLADAHNNHRQQAEQLAEDLKEFVRSLQKETATFLEESAQSRAEKAEELAQELRDFRAELRDTVAQWQQQWQQQDQERAAGRRKLAQQVQGDLQEFNIIRTIMAEKLLQQTQEAKAERLAGIQSMFEDMGKFRMQLQEYRREREKSVWGGERVKSTPATPQKAKASQTLVPQTKPKAVKSAPSTTTAAQSTTPTAVVVAEPTKPAVPPNQPKPTTVVPHPPNPG
modifications: Arthrospira platensis C1
notes: as for B1
B6: SEQID-00617: protein of the 168 nutritive polypeptide library (protein)
chain: MNKEQLVQETSIKAGVTKKQADAIISAICECIMDAVADGEKVTLVGFGSFEARHRKAREGRNPSTGQPMTIPATTVPAFSAGKAFKERVANESNENVA
modifications: Arthrospira platensis NIES-39
notes: as for B1
B7: SEQID-00623: protein of the 168 nutritive polypeptide library (protein, listed as Solanum lycopersicum)
chain: MKPAEKKPAEKTPVAEKAPAEKKPKAGKKLPKDAAAGDKKKKRSKKAVETYKIYIFKVLKQVHPDIGISSKAMGIMNSFINDIFEKLAQEASRLARYNKKPTITSREIQTAVRLVLPGELAKHAVSEGTKAVTKFTSS
B8: SEQID-00620: protein of the 168 nutritive polypeptide library (protein, listed as Saccharomyces cerevisiae)
chain: MSDVEEVVEVQEETVVEQTAEVTIEDALKVVLRTALVHDGLARGLRESTKALTRGEALLVVLVSSVTEANIIKLVEGLANDPENKVPLIKVADAKQLGEWAGLGKIDREGNARKVVGASVVVVKNWGAETDELSMIMEHFSQQ
modifications: source: /note="strain ATCC 204508 / S288c"
notes: as for B1
B9: SEQID-00625: protein of the 168 nutritive polypeptide library (protein)
chain: MPFKRYVEIGRVAQINYGKEYGRLVVIVDVIDQNRALVDAPDMVRSQVNFKRLSLTDIKIDIKRVPKKKDLVKAMEDADVKTKWEKSSWGRKLIVRKRRASLNDFDRFKIMLAKIKKAAVVRQELAKLRKSA
modifications: Glycine max
notes: as for B1
B10: SEQID-00619: protein of the 168 nutritive polypeptide library (protein, listed as Linum usitatissimum)
chain: MAPKAAEKKPAEKKPAEEKKAEKAPAEKKPRAEKKLPKEGGAAAADKKKKRNKKNVETYKIYIFKVLKQVHPDIGISSKAMGIMNSFINDIFEKLAAESSRLARYNKKPTITSREIQTAVRLVLPGELAKHAVSEGTKAVTKFTSS
B11: SEQID-00612: protein of the 168 nutritive polypeptide library (protein, listed as Oryza sativa)
chain: MICLRAAFPLTSSPLRRLALKPSSSRAAAAAMSSAIAAPVEHIVLIKVRPEAASSGAAAAMVSSLQALSTAVPGLSYIHVGPVLRLRSPAAEALGPTHVLHSRYATKPDLAAYAAHPAHVAAVQGHVLPNALDSTAIDWVNAALVPSPVNPGSAVRLSLAKLKEGVEAHQLAEKLAAATAAAGEAKGAKVSFGENFSPARAKGYQFGMVAVFDSVEGLDAVDGDGKVEAAKAIVRPLLDDVLELEFVVGPAAAEAPAPANL
modifications: source: /note="subsp. japonica"
notes: as for B1
B12: SEQID-00626: protein of the 168 nutritive polypeptide library (protein, listed as Lactobacillus acidophilus)
chain: MVMTDPIADYLTRIRNANMAKHDSVEIPASNIKKSISEILKREGFIRDYEVADDNKQGVIKVFLKYGPNGERVISGLKRISKPGLRNYVSAEDLPKVLNGLGIAIVSTSAGVITDKEARQKNVGGEVIAYIW
modifications: source: /note="strain 30SC"
notes: as for B1
B13: SEQID-00628: protein of the 168 nutritive polypeptide library (protein, listed as Saccharomyces cerevisiae)
chain: MSDFQKEKVEEQEQQQQQIIKIRITLTSTKVKQLENVSSNIVKNAEQHNLVKKGPVRLPTKVLKISTRKTPNGEGSKTWETYEMRIHKRYIDLEAPVQIVKRITQITIEPGVDVEVVVASN
modifications: source: /note="strain ATCC 204508 / S288c"
notes: as for B1
B14: SEQID-00602: protein of the 168 nutritive polypeptide library (protein, listed as Lactobacillus acidophilus)
chain: MKSYMKKIAAVVAVAGVALSTAACSNGGSNSTVASYKGGKITQQQYYDEMKKSQAGKSTLANMIINRALEQQYGKYVSSKKVDKQYNNYKKQYGSQFSAVLQQNGMTASSFKENLKTNLLSEQALKHIKKISKKQEQQAWKSYQPKVTVQHILVAKKSTAQSIIKQLKDGKSFKSLAKKYSLDTATKNKAGKLPAFDSTDNTLDSSFKTAAFKLKTGEVTSTPVKSQSGYHVIKMISHPAKGKFADHKKAIDDEIYASMAQDQATMKDVISTVLKRADVSIKDSDLKDVLASYVSTTSATK
modifications: source: /note="strain 30SC"
notes: as for B1

Experiment: SGF digest of 168 nutritive polypeptide library, intact protein by LC-MS/MS
Assay type: in vitro ADME
Details: 168 nutritive polypeptide library SGF digest, LC-MS/MS spectral counts
Protocol: The in vitro intact half-life of multiple polypeptides in a complex mixture was determined using the simulated gastric in vitro digestion described above. Briefly, the 168 nutritive polypeptide library was generated as described herein by cloning, transforming, and expressing a gene library encoding 168 proteins as a single mixture. The recombinantly expressed proteins were purified from host cell proteins by IMAC purification as described herein.
The 168 Protein Library was treated with SGF as described above and the t=0 and t=10 min samples were analyzed for intact protein by LC-MS/MS. To begin, 10 μg of sample was loaded onto a 10% SDS-PAGE gel (Invitrogen) and run approximately 5 cm into the gel. The gel was excised into ten fractions from 100 kD to the dye front and the gel slices were processed by washing with 25 mM ammonium bicarbonate, followed by acetonitrile. Gel fractions were then reduced with 10 mM dithiothreitol at 60° C., followed by alkylation with 50 mM iodoacetamide at room temperature. Finally, the samples were digested with trypsin (Promega) at 37° C. for 4 h and the digestions were quenched with the addition of formic acid. The samples were then analyzed by nano LC/MS/MS using an EasynLC 1000 HPLC system interfaced to a ThermoFisher Q Exactive. Peptides were loaded on a trapping column and eluted over a 75 μm analytical column at 350 nL/min; both columns were packed with PepMap C18 3 μm resin (ThemoFisher). A 1 hour gradient was employed. The mass spectrometer was operated in data-dependent mode, with MS and MS/MS performed in the Orbitrap at 70,000 FWHM resolution and 17,500 FWHM resolution, respectively. The fifteen most abundant ions were selected for MS/MS. Data were searched against an appropriate database using Mascot to identify peptides. Mascot DAT files were parsed into the Scaffold software for validation, filtering and to create a nonredundant list per sample. Data were filtered at 1% protein and peptide false discovery rate (FDR) and requiring at least two unique peptides per protein. A full list of detected proteins and their spectral counts (SpC) was generated and reported as a function of each collected gel fraction. SpC are a count of the number of spectra identified for a given protein and are used as a measure of relative protein abundance (Liu, H. et al., Analytical Chemistry 2004, 76: 4193-4201). To calculate the percentage of intact protein remaining at the 10 min time point of the SGF digest the number of SpC representative of intact peptide in the t=10 min sample were divided by the number of SpC representative of intact peptide in the t=0 min sample. The number of SpC representative of intact peptide was defined as the sum of the SpC in the fraction with the highest number of SpC assigned to that protein in the t=0 min sample and the two flanking fractions.

| Molecule | % Intact Protein at 10 min [%] |
| --- | --- |
| B1 | 0 |
| B2 | 0 |
| B3 | 0 |
| B4 | 0 |
| B5 | 0 |
| B6 | 43.9 |
| B7 | 63.6 |
| B8 | 0 |
| B9 | 0 |
| B10 | 68.5 |
| B11 | 0 |
| B12 | 0 |
| B13 | 0 |
| B14 | 0 |
